# US20250313648A1 (REGENTS OF THE UNIVERSITY OF MINNESOTA, published 2025)
# Experiments:
# [1] = target: T1, chondroitin sulfate proteoglycan 4 (CSPG4) (human, UniProt Q6UVK1 30-2322); assay: identified by the methods of Example 6 (hybridoma raised against the CSPG4 fragment)
# T1 construct: whole, on cells; Endogenous full-length CSPG4 of human ovarian cancer cell lines, on the cell surface or in cell lysates for western blot; also called CSPG4 core protein
# [2] = target: T1, chondroitin sulfate proteoglycan 4 …; assay: western blot on mock and CSPG4-CRISPR cell lysates; immunofluorescence of cells
# Experimental: FIGS. 1A-1D. Antibody 7H5A2 targets CSPG4. FIG. 1A) Amino acid sequence of recombinant protein target used to generate antibody 7H5A2 (SEQ ID NO:34). Black text denotes CSPG4 region (SEQ ID NO:33), the lighter gray text corresponds to human FC sequence for protein purification. […] Cells are harvested in lysis buffer and 40 μg protein was loaded in each well from the indicated mock and CSPG4-CRISPR cell lines. Alpha-tubulin is included as a loading control. FIG. 1D) Immunofluorescence staining of HEY parent cells with antibody 7H5A2. Red bar=10 μm. Magnification 600×.
# Generation of novel CSPG4 antibody: CSPG4-specific mouse monoclonal antibody 7H5A2 was generated by Promab Biotechnologies Inc (Richmond, CA) by injection of a recombinant CSPG4 protein immunogen corresponding to aa 1538-2221 of the CSPG4 core protein extracellular domain, expressed and purified from a eukaryotic expression system (see FIG. 1A). The specificity of the antibody was determined by screening against CSPG4 wild type and knockout cell lysates via western blot and cell staining via immunofluorescence (see FIGS. 1B and 1C). 7H5A2 is isotype IgG1.
# T1 sequence (Q6UVK1 30-2322): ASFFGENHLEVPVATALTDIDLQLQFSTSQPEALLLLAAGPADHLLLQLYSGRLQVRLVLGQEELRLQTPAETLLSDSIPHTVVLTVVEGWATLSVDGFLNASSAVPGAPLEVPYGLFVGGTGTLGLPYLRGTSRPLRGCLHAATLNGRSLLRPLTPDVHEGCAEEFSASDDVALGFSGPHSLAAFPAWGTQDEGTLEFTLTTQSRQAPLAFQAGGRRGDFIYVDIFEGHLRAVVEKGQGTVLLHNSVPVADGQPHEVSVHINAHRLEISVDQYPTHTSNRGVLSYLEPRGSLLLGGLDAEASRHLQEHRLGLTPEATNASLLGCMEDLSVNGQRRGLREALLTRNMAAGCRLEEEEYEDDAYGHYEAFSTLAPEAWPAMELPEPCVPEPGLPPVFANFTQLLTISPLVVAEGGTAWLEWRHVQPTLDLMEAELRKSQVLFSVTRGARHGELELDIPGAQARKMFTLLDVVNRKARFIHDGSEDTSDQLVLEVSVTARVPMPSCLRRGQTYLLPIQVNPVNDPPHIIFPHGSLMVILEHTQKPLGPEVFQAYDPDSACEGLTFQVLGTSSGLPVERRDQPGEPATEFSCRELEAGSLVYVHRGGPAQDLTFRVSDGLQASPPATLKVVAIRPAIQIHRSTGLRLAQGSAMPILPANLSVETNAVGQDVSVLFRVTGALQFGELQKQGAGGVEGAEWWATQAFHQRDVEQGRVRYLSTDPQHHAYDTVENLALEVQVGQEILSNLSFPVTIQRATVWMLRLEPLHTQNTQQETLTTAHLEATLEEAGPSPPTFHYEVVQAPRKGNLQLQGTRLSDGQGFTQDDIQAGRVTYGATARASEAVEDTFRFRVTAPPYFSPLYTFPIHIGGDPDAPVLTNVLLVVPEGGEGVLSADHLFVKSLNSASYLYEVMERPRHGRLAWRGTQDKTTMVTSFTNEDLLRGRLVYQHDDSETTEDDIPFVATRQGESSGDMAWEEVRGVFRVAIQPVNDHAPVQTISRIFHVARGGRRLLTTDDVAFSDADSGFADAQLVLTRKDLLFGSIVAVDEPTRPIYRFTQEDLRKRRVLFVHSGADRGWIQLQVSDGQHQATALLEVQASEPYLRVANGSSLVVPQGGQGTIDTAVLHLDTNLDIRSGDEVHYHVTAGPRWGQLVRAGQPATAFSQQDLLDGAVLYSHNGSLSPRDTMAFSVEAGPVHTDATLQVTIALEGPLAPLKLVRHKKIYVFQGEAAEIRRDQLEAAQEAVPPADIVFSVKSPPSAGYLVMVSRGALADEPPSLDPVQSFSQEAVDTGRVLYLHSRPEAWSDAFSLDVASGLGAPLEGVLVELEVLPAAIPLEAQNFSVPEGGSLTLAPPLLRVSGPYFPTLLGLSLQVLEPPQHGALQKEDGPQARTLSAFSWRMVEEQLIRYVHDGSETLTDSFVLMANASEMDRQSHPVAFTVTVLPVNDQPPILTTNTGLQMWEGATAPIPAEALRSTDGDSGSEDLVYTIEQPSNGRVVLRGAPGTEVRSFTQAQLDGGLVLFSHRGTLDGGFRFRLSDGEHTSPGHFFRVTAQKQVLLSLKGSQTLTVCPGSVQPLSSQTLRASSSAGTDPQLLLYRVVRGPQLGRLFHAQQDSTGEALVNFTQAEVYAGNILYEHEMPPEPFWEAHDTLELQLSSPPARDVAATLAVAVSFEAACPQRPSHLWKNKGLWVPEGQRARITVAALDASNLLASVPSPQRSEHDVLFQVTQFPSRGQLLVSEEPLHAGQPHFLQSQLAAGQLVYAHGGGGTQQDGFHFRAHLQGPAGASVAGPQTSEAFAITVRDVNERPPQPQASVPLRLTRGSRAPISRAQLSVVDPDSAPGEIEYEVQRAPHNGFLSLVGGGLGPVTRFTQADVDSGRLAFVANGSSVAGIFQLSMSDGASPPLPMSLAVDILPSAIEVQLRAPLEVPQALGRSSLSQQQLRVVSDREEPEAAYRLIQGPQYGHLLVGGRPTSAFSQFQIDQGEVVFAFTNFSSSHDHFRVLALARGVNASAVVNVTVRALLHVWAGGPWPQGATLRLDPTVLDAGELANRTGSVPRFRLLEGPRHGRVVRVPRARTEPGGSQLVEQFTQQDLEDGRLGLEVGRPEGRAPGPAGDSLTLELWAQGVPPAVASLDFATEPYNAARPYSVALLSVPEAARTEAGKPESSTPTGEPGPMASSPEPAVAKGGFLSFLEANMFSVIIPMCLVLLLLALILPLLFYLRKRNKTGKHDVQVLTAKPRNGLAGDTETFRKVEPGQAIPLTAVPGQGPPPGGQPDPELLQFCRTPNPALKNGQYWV
Binder,binding result [1],binding result [2]
"anti-CSPG4 antibody 8G5A6 (antibody, V domains shown) VH: EVQLQQSGPDLVKPGASVKISCKASGYSFTVYYMNWVKQSHGKSLEWIGRIDPNDGGASYNQKFKGKAILTVDKSSGTAYMELRSLTSEDSAVYYCARRDYYGSKDYWGQGTTLTVSS VL: not shown",binds,
"CSPG4-specific mouse monoclonal antibody 7H5A2 (antibody, IgG1, V domains shown, also called anti-CSPG4 antibody 7H5A2) VH: QVQLQQSGAELVRPGSSVKISCKASGFAFSNYWMNWVKQRPGQGLEWIGQIFPGDGDTNYNGKFKGKATLTADKSSSTAYMQLISLTSEDSAVYFCVRESDWGRGTTLTVSS VL: DIQMTQTTSSLSASLGDRVTISCSASQGINNYLNWYQQTPDGTVKLLIFYTSSLQSGVPSRFSGSGSGTDYSLTISNLEPEDIATYYCQQYSKLPFTFGSGTKLEIKR",,binds
